From publication PMC11430099

System: T1, CadX (single-chain homodimer, two identical CadX copies joined by GGGGSGGGGSGGGGS linker) (Streptococcus suis GZ0565), ORF:24397d24
T1 sequence: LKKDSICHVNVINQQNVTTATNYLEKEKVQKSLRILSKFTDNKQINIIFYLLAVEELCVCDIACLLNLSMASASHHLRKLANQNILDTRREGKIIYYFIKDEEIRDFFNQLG
Assay: EMSA

In the case of “TTTGGATGGCAGGGCTTTTTTATATTTGGTACACTAACTTCTTATCTATATTTTGGTGGAGCTGAAGTTGACATCTACAATGTTTAATGTTAGAATACATTCAAAAATATATTTGAATGAGGTCTTTT (double strand) [cadDX promoter fragment]”, the binding is reported as “binds”.
